According to patent US20260193348A1 (ANTENGENE BIOLOGICS, published 2026):
Residue numbers refer to the chain shown, from its start. Names may count otherwise.

B1: Bis-40E9-L2H3 (bispecific antibody, human IgG1, kappa, L234A L235A)
heavy 1: not shown
heavy 2: EVQLVQSGAEVKKPGASVKVSCKASGYTFTSYVIHWVRQAPGQGLEWMGYFNPYNDGTKYNEEFKGRVTLTSDKSTSTAYMELRSLRSDDTAVYYCARGGVRRYFDVWGQGTTVTVSSASTKGPSVFPLAPSSKSTSGGTAALGCLVKDYFPEPVTVSWNSGALTSGVHTFPAVLQSSGLYSLSSVVTVPSSSLGTQTYICNVNHKPSNTKVDKKVEPKSCGGGGSGGGGSEVQLVQSGAEVKKPGSSVKVSCKASGYTFSSYVIHWVRQAPGQCLEWMGYINPYNDVIKYNEKFKGRVTLTSDKSTSTAYMELSSLRSEDTAVYYCARDSYYSYDGFAYWGQGTLVTVSSGGGGSGGGGSGGGGSGGGGSEIVLTQSPDFQSVTPKEKVTITCSASSSVSYMHWYQQKPDQSPKRLIYDTSKLASGVPSRFSGSGSGTDFTLTINSLEAEDAATYYCQQWSSNPPTFGCGTKVEIKGGGGSGGGGSDKTHTCPPCPAPEAAGGPSVFLFPPKPKDTLMISRTPEVTCVVVDVSHEDPEVKFNWYVDGVEVHNAKTKPREEQYNSTYRVVSVLTVLHQDWLNGKEYKCKVSNKALPAPIEKTISKAKGQPREPQVCTLPPSREEMTKNQVSLSCAVKGFYPSDIAVEWESNGQPENNYKTTPPVLDSDGSFFLVSKLTVDKSRWQQGNVFSCSVMHEALHNHYTQKSLSLSPGK
light: DIQMTQSPSSLSASVGDRVTITCRASQDIGSNLNWLQQKPGKAIKRLIYATFGLDSGVPSRFSGSRSGTDFTLTISSLQPEDFATYYCQQYASFPYTFGGGTKVEIKRTVAAPSVFIFPPSDEQLKSGTASVVCLLNNFYPREAKVQWKVDNALQSGNSQESVTEQDSKDSTYSLSSTLTLSKADYEKHKVYACEVTHQGLSSPVTKSFNRGEC
B2: Bis-40E9-L2H3-D56G.H (bispecific antibody)
heavy 1: not shown
heavy 2: B1 heavy 2 with D287G
light: B1 light
notes: Fab-scFv-Fab format with LALA mutations
B3: Bis-40E9-L2H3-D105R.H (bispecific antibody)
heavy 1: not shown
heavy 2: B1 heavy 2 with D336R
light: B1 light
notes: as for B2
B4: Bis-40E9-L2H3-Y101F.H (bispecific antibody)
heavy 1: not shown
heavy 2: B1 heavy 2 with Y332F
light: B1 light
notes: as for B2
B5: Bis-40E9-L2H7 (bispecific antibody)
heavy 1: not shown
heavy 2: B1 heavy 2 with Y285G, D287G, Y333S
light: B1 light
notes: as for B2
B6: Bis-40E9-L2H11 (bispecific antibody)
heavy 1: not shown
heavy 2: B1 heavy 2 with D336R, G337A
light: B1 light
notes: Fab-scFv-Fab format with LALA mutations; copies: 1 + 1 + 2
B7: Bis-40E9-L2H3-N55S.H (bispecific antibody, human IgG1, kappa, L234A L235A)
heavy 1: not shown
heavy 2: B1 heavy 2 with N286S
light: B1 light

Legend:
GPRC5D on MM.1S cells [1] = target: T1, GPRC5D on MM.1S cells (human, UniProt Q9NZD1 1-345); assay: FACS on MM.1S cells
T1 construct: whole, on cells; MM.1S is called a GPRC5D positive expressed cell line and human multiple myeloma cells; also called G-protein coupled receptor family C group 5 member D
T1 sequence (Q9NZD1 whole entry): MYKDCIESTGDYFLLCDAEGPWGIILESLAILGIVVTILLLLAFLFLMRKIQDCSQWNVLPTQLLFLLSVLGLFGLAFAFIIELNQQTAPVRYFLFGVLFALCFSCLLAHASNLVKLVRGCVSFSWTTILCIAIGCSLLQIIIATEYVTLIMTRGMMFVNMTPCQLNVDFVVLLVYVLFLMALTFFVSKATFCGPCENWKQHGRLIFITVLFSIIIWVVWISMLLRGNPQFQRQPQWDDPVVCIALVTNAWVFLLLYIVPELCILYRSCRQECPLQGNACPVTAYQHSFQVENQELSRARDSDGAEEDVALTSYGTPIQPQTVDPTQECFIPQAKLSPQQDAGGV
Method: To evaluate the binding affinity of the generated chimeric bispecific antibody to T cells, the isolated CD3⁺ T cells were stained by antibodies and the binding affinity was determined by FACS analysis. The protocol of FACS analysis is described as follows: [0785] (a) CD3⁺ T cells were isolated from normal donors. [0786] (b) The isolated CD3⁺ T cells were washed by Staining Buffer (PBS+1% BSA) in round bottom 96-well plate. […] (c) Antibody dilutions were added to each well and mixed with the CD3+ T cells, incubated at 4 degrees for 1 hour. […] (d) Cells were spined at 300 g for 3 minutes, then the supernatants were discarded. [0789] (e) Cells were washed with Staining Buffer. [0790] (f) Step (d) was repeated, and the cells were incubated with secondary antibody in Staining Buffer for 0.5 hours at 4 degrees. [0791] (g) After incubation, step (d)-(e) were repeated. [0792] (h) Cells were resuspended in Staining Buffer and fluorescence signals were recorded by flow cytometry.
The binding affinities of the generated humanized Fab-scFv-Fab bispecific antibodies to MM.1S were evaluated by FACS analysis. The protocol for FACS analysis is identical to that described in Example 1.2, except that MM.1S were used in this example.

CD3 on Jurkat cells = target: T2, CD3 on Jurkat cells (UniProt P07766 23-207; P04234 22-171; P09693 23-182); assay: FACS on Jurkat cells
T2 construct: whole, on cells; On the cell, CD3 stands in the TCR-CD3 complex; also called cluster of differentiation 3
T2 sequence (P07766 23-207, chain 1 of 3): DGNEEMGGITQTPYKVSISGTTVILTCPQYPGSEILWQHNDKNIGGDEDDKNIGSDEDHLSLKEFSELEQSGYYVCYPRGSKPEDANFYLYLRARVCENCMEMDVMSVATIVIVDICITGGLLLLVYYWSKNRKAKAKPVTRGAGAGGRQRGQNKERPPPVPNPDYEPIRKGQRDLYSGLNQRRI
T2 sequence (P04234 22-171, chain 2 of 3): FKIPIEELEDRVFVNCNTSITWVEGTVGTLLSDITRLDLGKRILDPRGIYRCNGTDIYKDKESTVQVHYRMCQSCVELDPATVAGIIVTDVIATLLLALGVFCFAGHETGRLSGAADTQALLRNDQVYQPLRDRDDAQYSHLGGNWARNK
T2 sequence (P09693 23-182, chain 3 of 3): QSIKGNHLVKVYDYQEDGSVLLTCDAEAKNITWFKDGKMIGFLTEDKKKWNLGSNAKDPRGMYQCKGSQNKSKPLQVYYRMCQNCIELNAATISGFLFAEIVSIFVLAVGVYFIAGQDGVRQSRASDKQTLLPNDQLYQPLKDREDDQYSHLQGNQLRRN
Method: The binding affinities of the generated humanized Fab-scFv-Fab bispecific antibodies were determined by FACS analysis. […] (a) Jurkat cells were washed by Staining Buffer (PBS+1% BSA) in round bottom 96-well plate. [0833] (b) Antibody dilutions and cells were added to each well, incubated at 4 degrees for 1 hour. [0834] (c) Cells were spined down at 300 g for 3 minutes, and the supernatants were discarded. [0835] (d) Cells were washed with Staining Buffer. […] (e) Step (d) was repeated and the cells were incubated for 0.5 hours at 4 degrees with secondary antibody in Staining Buffer. [0837] (f) After incubation, step (d)-(e) were repeated. […] (g) Staining Buffer was added and fluorescence signals were recorded by flow cytometry.
The binding affinities of the generated humanized Fab-scFv-Fab bispecific antibodies were determined by FACS analysis. The protocol for FACS analysis is identical to that described in Example 3.2, except that different test antibodies were used.

GPRC5D on MM.1S cells [2] = target: T1, GPRC5D on MM.1S cells; assay: cell-based or functional assay
GPRC5D on MM.1S cells [3] = target: T1, GPRC5D on MM.1S cells; assay: cell-based or functional assay; remark: listed apart in the source

| Binder | Ratio of EC50 (relative to ATG-Bis-40E9) (GPRC5D on MM.1S cells [1]) | Ratio of Top MFI (relative to ATG-Bis-40E9) (GPRC5D on MM.1S cells [1]) | Ratio of EC50 (relative to ATG-Bis-40E9) (CD3 on Jurkat cells) | Ratio of Top MFI (relative to ATG-Bis-40E9) (CD3 on Jurkat cells) | Ratio of IC50 (relative to ATG-Bis-40E9), MM.1S cytotoxicity (GPRC5D on MM.1S cells [2]) | Ratio of Top cytotoxicity (relative to ATG-Bis-40E9), MM.1S cytotoxicity (GPRC5D on MM.1S cells [2]) | Ratio of EC50 (relative to ATG-Bis-40E9), luciferase assay on MM.1S (GPRC5D on MM.1S cells [3]) | Ratio of Top RLU (relative to ATG-Bis-40E9), luciferase assay on MM.1S (GPRC5D on MM.1S cells [3]) |
| --- | --- | --- | --- | --- | --- | --- | --- | --- |
| B1 | 1.19 ratio | 0.997 ratio | 1.65 ratio | 0.77 ratio | 0.23 ratio | 1.04 ratio | 3.25 ratio | 1.09 ratio |
| B2 |  |  | 2.41 ratio | 0.55 ratio | 0.99 ratio | 1 ratio | 0.81 ratio | 1.01 ratio |
| B3 |  |  | 4.53 ratio | 1.17 ratio | 0.86 ratio | 1.01 ratio | 1.32 ratio | 0.79 ratio |
| B4 | 1.27 ratio | 0.954 ratio | 13.6 ratio |  | 1.94 ratio | 1.03 ratio | 4.89 ratio | 1.57 ratio |
| B5 | 2.5 ratio | 1.25 ratio | 1.24 ratio | 0.68 ratio | 3.21 ratio | 0.98 ratio | 2.79 ratio | 0.85 ratio |
| B6 | 5.78 ratio | 1.47 ratio | 7.88 ratio | 6.35 ratio | 13.7 ratio | 1 ratio | 26.2 ratio | 1.24 ratio |
| B7 |  |  | 167 ratio |  | 1.06 ratio | 1 ratio | 1.33 ratio | 0.75 ratio |
